# Article PMC7658645
# Key:
# Assay in all cases: dot blot (nitrocellulose filter binding)
# Conditions in all cases: 5 mM Mg2+; Dot blot/aptamer blot: 20 mM Tris-HCl, 100 mM NaCl, 5 mM MgCl2, 0.1% BSA (pH not given), 50 nM aptamer in dot blot (membranes equilibrated at 4 C), blots 1 h …
# [1] = target: GST (glutathione S-transferase tag) (UniProt P08515)
# [2] = system: MBP (maltose-binding protein tag)
# [3] = target: His-TrxA (His-tagged thioredoxin 1) (UniProt P0AA25)
sequence,measurement,setting,value
ATACGACTCACTATTAGGGACAAAGCTGACAACCCTTTCATAATCTAACTACATTTATGTGCTAGACTACTGACTAC [G1],Kd,[1],59 nM
ATACGACTCACTATTAGGGACCACATAAACATGCATCGCTCAATAACGGGATATTGTTGTGCTAGACTACTGACTACAA [M1],Kd,[2],86 nM
ATACGACTCACTATTAGGGATGTCCACCATATAGATCGATTTAAGTCCCTCGTTATTAATGCTAGACTACTGACTACAA [H1],Kd,[3],173 nM
